Holding throughout (assay): cell-based or functional assay
The target of experiment [1] is hGLP-1R (Homo sapiens, UniProt P43220).
Experiment [2] has as its target human glucagon receptor (human) (UniProt P47871).
In experiment [3] the target is T1, human GIP receptor (human) (UniProt P48546).
T1 sequence (looked up): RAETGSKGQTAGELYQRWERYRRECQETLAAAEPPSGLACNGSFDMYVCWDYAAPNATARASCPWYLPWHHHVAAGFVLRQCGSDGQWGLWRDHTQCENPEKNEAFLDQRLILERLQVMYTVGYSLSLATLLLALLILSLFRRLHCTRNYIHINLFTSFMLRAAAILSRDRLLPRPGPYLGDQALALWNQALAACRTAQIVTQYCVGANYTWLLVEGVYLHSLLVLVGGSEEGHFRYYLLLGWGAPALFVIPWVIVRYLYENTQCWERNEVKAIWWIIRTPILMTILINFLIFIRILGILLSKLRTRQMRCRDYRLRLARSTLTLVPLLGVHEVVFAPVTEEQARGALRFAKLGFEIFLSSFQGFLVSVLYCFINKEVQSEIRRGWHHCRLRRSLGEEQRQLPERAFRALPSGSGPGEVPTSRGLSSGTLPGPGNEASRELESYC

For experiment [4], the target named is human GLP1-R (SNAP-GLP-1R expressed in HEK293 cells) (human) (UniProt P43220).
Chain of human GLP1-R (SNAP-GLP-1R expressed in HEK293 cells) (human) (P43220 24-463): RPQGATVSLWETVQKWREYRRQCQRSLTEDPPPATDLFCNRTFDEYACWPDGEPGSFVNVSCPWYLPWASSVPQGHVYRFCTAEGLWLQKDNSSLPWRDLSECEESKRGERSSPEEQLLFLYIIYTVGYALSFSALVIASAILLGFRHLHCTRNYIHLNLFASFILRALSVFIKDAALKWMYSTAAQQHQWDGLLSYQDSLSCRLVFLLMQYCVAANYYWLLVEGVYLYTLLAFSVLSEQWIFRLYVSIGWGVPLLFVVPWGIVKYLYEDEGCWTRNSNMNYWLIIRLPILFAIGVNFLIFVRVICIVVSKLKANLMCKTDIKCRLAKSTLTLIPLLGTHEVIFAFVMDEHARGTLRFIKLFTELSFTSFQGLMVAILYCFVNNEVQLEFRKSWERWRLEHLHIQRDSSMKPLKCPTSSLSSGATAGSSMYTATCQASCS

Chain of hGLP-1R (P43220 24-463): as above
Chain of human glucagon receptor (human) (P47871 26-477): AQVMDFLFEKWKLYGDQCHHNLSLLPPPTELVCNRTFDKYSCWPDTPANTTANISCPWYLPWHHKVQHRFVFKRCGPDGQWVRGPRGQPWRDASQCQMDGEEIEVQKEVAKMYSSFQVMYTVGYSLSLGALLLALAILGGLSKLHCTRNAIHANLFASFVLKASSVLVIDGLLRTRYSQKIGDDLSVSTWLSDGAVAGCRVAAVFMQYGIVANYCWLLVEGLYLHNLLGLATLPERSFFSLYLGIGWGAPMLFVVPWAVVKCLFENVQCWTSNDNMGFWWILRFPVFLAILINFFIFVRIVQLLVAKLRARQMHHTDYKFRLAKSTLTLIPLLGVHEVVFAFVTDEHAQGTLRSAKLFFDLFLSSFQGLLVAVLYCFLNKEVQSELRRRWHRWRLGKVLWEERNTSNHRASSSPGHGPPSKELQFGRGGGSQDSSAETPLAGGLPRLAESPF

B1: Example 80 (peptide)
chain: YXQGTFTSDFSRXLDKKAQXAFIEYLLEXGPSSGAPPPSGS
modifications: synthetic construct; SITE 2: note = 2-Aminoisobutyric Acid; SITE 13: note = alpha-methyl-leucine; SITE 17: note = Lysine is chemically modified through conjugation of the epsilon-amino group of the Lysine side chain with (2-[2-(2-Amino-ethoxy)-ethoxy]-acetyl)2-(gamma-Glu)-CO-(CH2 )16-CO2H; SITE 20:
B1: in experiment [1], the Relative cAMP EC50 was 2.55 nM and the cAMP Rel EC50, nM (in the presence of 1% HSA) came to 627 nM. In experiment [2], the Relative cAMP EC50 was determined as 7.44 nM and the cAMP Rel EC50, nM (in the presence of 1% HSA) came to 1190 nM. In experiment [3], the Relative cAMP EC50 was determined as 0.0593 nM and the cAMP Rel EC50, nM (in the presence of 1% HSA) was determined as 10.1 nM. Besides, in experiment [4], the GLP1R Internalization EC50 came to 35.8 nM and the Internalization % TOP came out at 48.2%.

B2: Example 11 (peptide)
chain: YXQGTFTSDFSKXLDKKAQXAFIEYLLAGGPSSGAPPPSGE
modifications: Aib, αMeL; acylated Lys; C-terminal amide; synthetic construct; SITE 2: note = 2-Aminoisobutyric Acid; SITE 13: note = alpha-methyl-leucine; SITE 17: note = Lysine is chemically modified through conjugation of the epsilon-amino group of the Lysine side chain with (2-[2-(2-Amino-ethoxy)-ethoxy]-acetyl)-(gamma-Glu)-CO-(CH2) 18-CO2H; SITE 20: n
For the molecule B2, in experiment [1], the Relative cAMP EC50 came to 2.07 nM and the cAMP Rel EC50 (in the presence of 1% HSA) came to 337 nM. Also, in experiment [2], the Relative cAMP EC50 was 12.5 nM and the cAMP Rel EC50 (in the presence of 1% HSA) came to 1700 nM. In addition, in experiment [3], the Relative cAMP EC50 was found to be 0.233 nM and the cAMP Rel EC50 (in the presence of 1% HSA) was found to be 40.8 nM. Further, in experiment [4], the GLP1R Internalization EC50 is 75.1 nM and the Internalization % TOP is 73.8%.

B3: Example 12 (peptide)
chain: YXQGTFTSDFSKXLDKKAQXAFIEYLLAGGPSSGAPPPSGG
modifications: Aib, αMeL; acylated Lys; C-terminal amide; synthetic construct; SITE 2: note = 2-Aminoisobutyric Acid; SITE 13: note = alpha-methyl-leucine; SITE 17: note = Lysine is chemically modified through conjugation of the epsilon-amino group of the Lysine side chain with (2-[2-(2-Amino-ethoxy)-ethoxy]-acetyl)-(gamma-Glu)-CO-(CH2) 18-CO2H; SITE 20: n
Take B3: in experiment [1], the Relative cAMP EC50 came to 1.46 nM and the cAMP Rel EC50 (in the presence of 1% HSA) worked out at 216 nM. Besides, in experiment [2], the Relative cAMP EC50 was 12.2 nM and the cAMP Rel EC50 (in the presence of 1% HSA) was 1490 nM. Besides, in experiment [3], the Relative cAMP EC50 worked out at 0.17 nM and the cAMP Rel EC50 (in the presence of 1% HSA) is 30.2 nM. In experiment [4], the GLP1R Internalization EC50 was determined as 48.5 nM and the Internalization % TOP stood at 75.3%.

B4: Example 87 (peptide)
chain: YXQGTFTSDFSXXLDKKAQXAFIEYLLAGGPSSGAPPPSGT
modifications: synthetic construct; SITE 2: note = 2-Aminoisobutyric Acid; SITE 12: note = L-ornithine; SITE 13: note = alpha-methyl-leucine; SITE 17: note = Lysine is chemically modified through conjugation of the epsilon-amino group of the Lysine side chain with (2-[2-(2-Amino-ethoxy)-ethoxy]-acetyl)-(gamma-Glu)
Consider B4, for which, in experiment [1], the Relative cAMP EC50 was determined as 2.75 nM and the cAMP Rel EC50, nM (in the presence of 1% HSA) was 290 nM. Further, in experiment [2], the Relative cAMP EC50 was 8.51 nM and the cAMP Rel EC50, nM (in the presence of 1% HSA) stood at 1110 nM. For the same molecule, in experiment [3], the Relative cAMP EC50 was found to be 0.128 nM and the cAMP Rel EC50, nM (in the presence of 1% HSA) was determined as 12.8 nM. Also, in experiment [4], the GLP1R Internalization EC50 worked out at 61.8 nM and the Internalization % TOP was found to be 45.4%.

B5: Example 16 (peptide)
chain: YXQGTFTSDFSKXLDKKAQXAFIEYLLAGGPSSGAPPPGGS
modifications: Aib, αMeL; acylated Lys; C-terminal amide; synthetic construct; SITE 2: note = 2-Aminoisobutyric Acid; SITE 13: note = alpha-methyl-leucine; SITE 17: note = Lysine is chemically modified through conjugation of the epsilon-amino group of the Lysine side chain with (2-[2-(2-Amino-ethoxy)-ethoxy]-acetyl)-(gamma-Glu)-CO-(CH2) 18-CO2H; SITE 20: n
B5: in experiment [1], the Relative cAMP EC50 was 1.54 nM and the cAMP Rel EC50 (in the presence of 1% HSA) amounted to 281 nM. In experiment [2], the Relative cAMP EC50 was 8.84 nM and the cAMP Rel EC50 (in the presence of 1% HSA) was 1660 nM. In experiment [3], the Relative cAMP EC50 came to 0.217 nM and the cAMP Rel EC50 (in the presence of 1% HSA) turned out to be 35.9 nM. In experiment [4], the GLP1R Internalization EC50 was determined as 37.8 nM and the Internalization % TOP was determined as 74.6%.

B6: Example 93 (peptide)
chain: YXQGTFTSDFSXXLDKKAQXAFIEYLLAGGPSSGAPPPEGS
modifications: synthetic construct; SITE 2: note = 2-Aminoisobutyric Acid; SITE 12: note = L-ornithine; SITE 13: note = alpha-methyl-leucine; SITE 17: note = Lysine is chemically modified through conjugation of the epsilon-amino group of the Lysine side chain with (2-[2-(2-Amino-ethoxy)-ethoxy]-acetyl)-(gamma-Glu)
Turning to B6, in experiment [1], the Relative cAMP EC50 came to 2.63 nM and the cAMP Rel EC50, nM (in the presence of 1% HSA) came to 397 nM. In experiment [2], the Relative cAMP EC50 was found to be 7.16 nM and the cAMP Rel EC50, nM (in the presence of 1% HSA) was determined as 1390 nM. In addition, in experiment [3], the Relative cAMP EC50 is 0.162 nM and the cAMP Rel EC50, nM (in the presence of 1% HSA) came to 27.9 nM. In addition, in experiment [4], the GLP1R Internalization EC50 worked out at 30.4 nM and the Internalization % TOP is 50.8%.

B7: Example 99 (peptide)
chain: YXQGTFTSDFSXXLDKKAQXAFIEYLLAGGPSSGAPPPEGE
modifications: synthetic construct; SITE 2: note = 2-Aminoisobutyric Acid; SITE 12: note = L-ornithine; SITE 13: note = alpha-methyl-leucine; SITE 17: note = Lysine is chemically modified through conjugation of the epsilon-amino group of the Lysine side chain with (2-[2-(2-Amino-ethoxy)-ethoxy]-acetyl)-(gamma-Glu)
In the case of B7, the Relative cAMP EC50 in experiment [1] was determined as 3.54 nM; in experiment [2], 6.09 nM; in experiment [3] it was 0.174 nM. Further, the cAMP Rel EC50, nM (in the presence of 1% HSA) amounted to 588 nM in experiment [1], 1130 nM in experiment [2] and 29.5 nM in experiment [3]. Further, the GLP1R Internalization EC50 in experiment [4] stood at 56.9 nM. For the same molecule, in experiment [4], the Internalization % TOP is 46.1%.

B8: Example 18 (peptide)
chain: YXQGTFTSDFSKXLDKKAQXAFIEYLLEGGPSSGAPPPGGS
modifications: Aib, αMeL; acylated Lys; C-terminal amide; synthetic construct; SITE 2: note = 2-Aminoisobutyric Acid; SITE 13: note = alpha-methyl-leucine; SITE 17: note = Lysine is chemically modified through conjugation of the epsilon-amino group of the Lysine side chain with (2-[2-(2-Amino-ethoxy)-ethoxy]-acetyl)-(gamma-Glu)-CO-(CH2) 18-CO2H; SITE 20: n
For B8, the Relative cAMP EC50 stood at 2.31 nM in experiment [1], 2.7 nM in experiment [2] and 0.337 nM in experiment [3]. For the same molecule, the cAMP Rel EC50 (in the presence of 1% HSA) in experiment [1] came to 561 nM; in experiment [2], 1210 nM; in experiment [3] it was 59.6 nM. In experiment [4], the GLP1R Internalization EC50 amounted to 91.8 nM. In experiment [4], the Internalization % TOP came out at 74.1%.

The values above are taken from patent publication US20240270821A1, “GIP/GLP1/GCG TRI-RECEPTOR AGONISTS AND USES THEREOF” (priority 2023, published 2024).
